Among the data in the RNAGym collection of RNA variant scans (doi:10.7554/elife.90254) are self-cleavage values, retold here.

The chains are these.
B1: LINE1-full (parent)
chain: UACGUAGGUGGUUUUCCCCUGAUAGUGCUAAGGGGGCCUGGAAGUUUGGACUGGGCAGAGCUCAACACAGCGUGGCAAAGUGGCUGUGGCUAGACUGCCUCUCUGGAUUCCUCGUCACUCAGCAGGGCAUCUCUGAGAGAAAUGCC

The variants in the series derive from B1. The series is described as follows: self-cleavage, relative activity (ratio to wild type); higher = more cleavage; in vitro, sequencing; the parent is a self-cleaving ribozyme.
Consider UACGUAGGUGGUUUUCCCCUGAUAGUGCUAAGGGGGCCUGGAAGUUUGGACAGGGCAGAGCUCAACACAGCGUGGCAAAGUGGCUGUGGCUAGACUGCCUCUCUGGAUUCCUCGUCACUCAGCAGGGCAUCUCUGAUAGAAAUGCC [U52A G137U], for which the self-cleavage was determined as 1.06.
The value for UACGUAGGUGGUUUUCCCCUGAUAGUGCUAAGGGGGCCUGGAAGUUUGGACAGGGCAGAGCUCAACACAGCGUGGCAAAGUGGCUGUGGCUAGACUGCCUCUCUGGAUUCCUCGUCACUCAGCAGGGCAUCUCUGAAAGAAAUGCC [U52A G137A] was 0.99; that for UACGUAGGUGGUUUUCCCCUGAUAGUGCUAAGGGGGCCUGGAAGUUUGGACAGGGCAGAGCUCAACACAGCGUGGCAAAGUGGCUGUGGCUAGACUGCCUCUCUGGACUCCUCGUCACUCAGCAGGGCAUCUCUGAGAGAAAUGCC [U52A U108C] was 1.66.
With UACGUAGGUGGUUUUCCCCUGAUAGUGCUAAGGGGGCCUGGAAGUUUGGACAGGGCAGAGCUCAACACAGCGUGGCAAAGUGGCUGUGGCUAGACUGCCUCUCUGGAUUCCCCGUCACUCAGCAGGGCAUCUCUGAGAGAAAUGCC [U52A U112C], the self-cleavage is 1.43.
The value for UACGUAGGUGGUUUUCCCCUGAUAGUGCUAAGGGGGCCUGGAAGUUUGGACAGGGCAGAGCUCAACACAGCGUGGCAAAGUGGCUGUGGCUAGACUGCCUCUCUGGAUUCCUCGUCACUCAGCAGGGCACCUCUGAGAGAAAUGCC [U52A U130C] was 1.42; that for UACGUAGGUGGUUUUCCCCUGAUAGUGCUAAGGGGGCCUGGAAGUUUGGACAGGGCAGAGCUCAACACAGCGUGGCAAAGUGGCUGUGGCUAGACUGCCACUCUGGAUUCCUCGUCACUCAGCAGGGCAUCUCUGAGAGAAAUGCC [U52A U100A] was 1.29.
The value for UACGUAGGUGGUUUUCCCCUGAUAGUGCUAAGGGGGCCUGGAAGUUUGGACAGGGCAGAGCUCAACACAGCGUGGCAAAGUGGCUGUGGCUAGACUGCCUCUCUGGAUUCCUCGUCACUCAGCAGGGCAUCUCUGAGAGGAAUGCC [U52A A140G] was 1.08; that for UACGUAGGUGGUUUUCCCCUGAUAGUGCUAAGGGGGCCUGGAAGUUUGGACAGGGCAGAGCUCAACACAGCGUGGCAAAGUGGCUGUGGCUAGACUGCCUCUCUGGAUUCCUCGUCACUCAGCAGGGCAUCACUGAGAGAAAUGCC [U52A U132A] was 1.18.
The value for UACGUAGGUGGUUUUCCCCUGAUAGUGCUAAGGGGGCCUGGAAGUUUGGACAGGGCAGAGCUCAACACAGCGUGGCAAAGUGGCUGUGGCUAGACUGCCUCUCUGGAUUCCUCGUCACUCAGCAGGGCAUCCCUGAGAGAAAUGCC [U52A U132C] was 1.48; that for UACGUAGGUGGUUUUCCCCUGAUAGUGCUAAGGGGGCCUGGAAGUUUGGACAGGGCAAAGCUCAACACAGCGUGGCAAAGUGGCUGUGGCUAGACUGCCUCUCUGGAUUCCUCGUCACUCAGCAGGGCAUCUCUGAGAGAAAUGCC [U52A G58A] was 0.
In the case of UACGUAGGUGGUUUUCCCCUGAUAGUGCUAAGGGGGCCUGGAAGUUUGGACCGGGCUGAGCUCAACACAGCGUGGCAAAGUGGCUGUGGCUAGACUGCCUCUCUGGAUUCCUCGUCACUCAGCAGGGCAUCUCUGAGAGAAAUGCC [U52C A57U], the self-cleavage came to 0.08.
The value for UACGUAGGUGGUUUUCCCCUGAUAGUGCUAAGGGGGCCUGGAAGUUUGGACCGGGCGGAGCUCAACACAGCGUGGCAAAGUGGCUGUGGCUAGACUGCCUCUCUGGAUUCCUCGUCACUCAGCAGGGCAUCUCUGAGAGAAAUGCC [U52C A57G] was 0.4; that for UACGUAGGUGGUUUUCCCCUGAUAGUGCUAAGGGGGCCUGGAAGUUUGGACAGGGCAGAGCUCAACACAGCGUGGCAAAGUGGCUGUGGCUAGACUGCUUCUCUGGAUUCCUCGUCACUCAGCAGGGCAUCUCUGAGAGAAAUGCC [U52A C99U] was 0.64; that for UACGUAGGUGGUUUUCCCCUGAUAGUGCUAAGGGGGCCUGGAAGUUUGGACAGGGCAGAGCUCAACACAGCGUGGCAAAGUGGCUGUGGCUAGACUGCCUCACUGGAUUCCUCGUCACUCAGCAGGGCAUCUCUGAGAGAAAUGCC [U52A U102A] was 1.03.
For UACGUAGGUGGUUUUCCCCUGAUAGUGCUAAGGGGGCCUGGAAGUUUGGACAGGGCAGAGCUCAACACAGCGUGGCAAAGUGGCUGUGGCUAGACUGCCUCUCUGGAUUCCUCGUCACUCAGCAGGGCAUCUCUGAGAGAAGUGCC [U52A A142G], the self-cleavage came to 1.46.
Regarding UACGUAGGUGGUUUUCCCCUGAUAGUGCUAAGGGGGCCUGGAAGUUUGGACAGGGCAGAGCUCAACACAGCGUGGCAAAGUGGCUGUGGCUAGACUGCCUCUCUGGAUUCCUCGUCACUCAGCAGGGCAUCUCUGAGGGAAAUGCC [U52A A138G], the self-cleavage is 1.57.
The value for UACGUAGGUGGUUUUCCCCUGAUAGUGCUAAGGGGGCCUGGAAGUUUGGACAGGGCAGAGCUCAACACAGCGUGGCAAAGAGGCUGUGGCUAGACUGCCUCUCUGGAUUCCUCGUCACUCAGCAGGGCAUCUCUGAGAGAAAUGCC [U52A U81A] was 1.49; that for UACGUAGGUGGUUUUCCCCUGAUAGUGCUAAGGGGGCCUGGAAGUUUGGACAGGGCAGAGCUCAACACAGCGUGGCAAAGUGGCUGUGGCUAGACUGCCUCUCGGGAUUCCUCGUCACUCAGCAGGGCAUCUCUGAGAGAAAUGCC [U52A U104G] was 1.53; that for UACGUAGGUGGUUUUCCCCUGAUAGUGCUAAGGGGGCCUGGAAGUUUGGACAGGGCAGAGCUCAACACAGCGUGGCAAAGUGGCUGUGGCUAGACUGCCUCUCAGGAUUCCUCGUCACUCAGCAGGGCAUCUCUGAGAGAAAUGCC [U52A U104A] was 2.03.
In the case of UACGUAGGUGGUUUUCCCCUGAUAGUGCUAAGGGGGCCUGGAAGUUUGGACAGGGCAGAGCUCAACACAGCGUGGCAAAGUGGCUGUGGCUAGACUGCCUCUCCGGAUUCCUCGUCACUCAGCAGGGCAUCUCUGAGAGAAAUGCC [U52A U104C], the self-cleavage came out at 1.36.
For UACGUAGGUGGUUUUCCCCUGAUAGUGCUAAGGGGGCCUGGAAGUUUGGACAGGGCAGAGCUCAACACAGCGUGGCAAAGUGGCAGUGGCUAGACUGCCUCUCUGGAUUCCUCGUCACUCAGCAGGGCAUCUCUGAGAGAAAUGCC [U52A U85A] the value was 0.1; for UACGUAGGUGGUUUUCCCCUGAUAGUGCUAAGGGGGCCUGGAAGUUUGGACAGGGCAGAGCUCAACACAGCGUGGCAAAGUGGCGGUGGCUAGACUGCCUCUCUGGAUUCCUCGUCACUCAGCAGGGCAUCUCUGAGAGAAAUGCC [U52A U85G], 0.22; for UACGUAGGUGGUUUUCCCCUGAUAGUGCUAAGGGGGCCUGGAAGUUUGGACAGGGCAGAGCUCAACACAGCGUGGCAAAGUGGCUGCGGCUAGACUGCCUCUCUGGAUUCCUCGUCACUCAGCAGGGCAUCUCUGAGAGAAAUGCC [U52A U87C], 0.29.
In the case of UACGUAGGUGGUUUUCCCCUGAUAGUGCUAAGGGGGCCUGGAAGUUUGGACAGGGCAGAGCUCAACACAGCGUGGCAAAGUGGCUGUGGCUAGACUGCCUCUCUGGAUUCAUCGUCACUCAGCAGGGCAUCUCUGAGAGAAAUGCC [U52A C111A], the self-cleavage turned out to be 1.25.
For UACGUAGGUGGUUUUCCCCUGAUAGUGCUAAGGGGGCCUGGAAGUUUGGACAGGGCAGAGCUCAACACAGCGUGGCAAAGUGGUUGUGGCUAGACUGCCUCUCUGGAUUCCUCGUCACUCAGCAGGGCAUCUCUGAGAGAAAUGCC [U52A C84U] the value was 0.14.
The value for UACGUAGGUGGUUUUCCCCUGAUAGUGCUAAGGGGGCCUGGAAGUUUGGACAGGGCAGAGCUCAACACAGCGUGGCAAAGUGGCUGUGGCUAGACUGCCUCUCUGGAUUCCUCGUCACUCAGCAGGGCAUCUCUCAGAGAAAUGCC [U52A G135C] was 1.82; that for UACGUAGGUGGUUUUCCCCUGAUAGUGCUAAGGGGGCCUGGAAGUUUGGACAGGGCAGAGCUCAACACAGCGUGGCAAAGUGGCUGUGGCUAGACUGCCUCUCUGGAUUCCUCGUCACUCAGUAGGGCAUCUCUGAGAGAAAUGCC [U52A C123U] was 1.11.
For UACGUAGGUGGUUUUCCCCUGAUAGUGCUAAGGGGGCCUGGAAGUUUGGACAGGGCAGAGCUCAACACAGCGUGGCAAAGUGGCUGUGGCUAGACUGCCUCUCUGGAUUCCUCGUCACUCAGCAGGACAUCUCUGAGAGAAAUGCC [U52A G127A] the value was 1.63; for UACGUAGGUGGUUUUCCCCUGAUAGUGCUAAGGGGGCCUGGAAGUUUGGACAGGGCAGAGCUCAACACAGCGUGGCAAAGUGGCUGUGGCUAGACUGCCUCUCUGGAUCCCUCGUCACUCAGCAGGGCAUCUCUGAGAGAAAUGCC [U52A U109C], 1.21; for UACGUAGGUGGUUUUCCCCUGAUAGUGCUAAGGGGGCCUGGAAGUUUGGACAGGGCAGAGCUCAACACAGCGUGGCAAAGUGGCUGUGGCGAGACUGCCUCUCUGGAUUCCUCGUCACUCAGCAGGGCAUCUCUGAGAGAAAUGCC [U52A U91G], 0.08.
For UACGUAGGUGGUUUUCCCCUGAUAGUGCUAAGGGGGCCUGGAAGUUUGGACCGGGCAGGGCUCAACACAGCGUGGCAAAGUGGCUGUGGCUAGACUGCCUCUCUGGAUUCCUCGUCACUCAGCAGGGCAUCUCUGAGAGAAAUGCC [U52C A59G], the self-cleavage worked out at 0.16.
For UACGUAGGUGGUUUUCCCCUGAUAGUGCUAAGGGGGCCUGGAAGUUUGGACAGGGCAGAGCUCAACACAGCGUGGCAAAGUGGCUGUGGCUAGACUGCCUCUCUGGAUUCCUCGUCACUCAGCAGGGCAUCUCUGAGAGAAAUACC [U52A G144A] the value was 1.44.
Take UACGUAGGUGGUUUUCCCCUGAUAGUGCUAAGGGGGCCUGGAAGUUUGGACAGGGCAGAGCUCAACACAGCGUGGCAAAGUGGCUGUGGCUAGACUGCCUCUCUGGAUUCCUCGUCACUCAGCAGGGCAUCUCCGAGAGAAAUGCC [U52A U134C]: the self-cleavage was 2.25.
For UACGUAGGUGGUUUUCCCCUGAUAGUGCUAAGGGGGCCUGGAAGUUUGGACAGGGCAGAGCUCAACACAGCGUGGCAAAGUGGCUGUGGCUAGACUGCCUCUCUGGAUUCCUCGUCACUCAGCAGGGCAUCUCAGAGAGAAAUGCC [U52A U134A] the value was 1.04.
UACGUAGGUGGUUUUCCCCUGAUAGUGCUAAGGGGGCCUGGAAGUUUGGACAGUGCAGAGCUCAACACAGCGUGGCAAAGUGGCUGUGGCUAGACUGCCUCUCUGGAUUCCUCGUCACUCAGCAGGGCAUCUCUGAGAGAAAUGCC [U52A G54U]: the self-cleavage was 1.84.
For UACGUAGGUGGUUUUCCCCUGAUAGUGCUAAGGGGGCCUGGAAGUUUGGACAGGGCAGAGCUCAACACAGCGUGGCAAAGUGGCUGUGGCUAGACUGCCUCUCUGGAUUCCUAGUCACUCAGCAGGGCAUCUCUGAGAGAAAUGCC [U52A C113A] the value was 1.24.
For UACGUAGGUGGUUUUCCCCUGAUAGUGCUAAGGGGGCCUGGAAGUUUGGACAGGGCAGAGCUCAACACAGCGUGGCAAAGUGGCUGUGGCUAGACUGCCUCUCUGGAUUCCUCGUCACUCAGCAGGGCAUUUCUGAGAGAAAUGCC [U52A C131U] the value was 1.46; for UACGUAGGUGGUUUUCCCCUGAUAGUGCUAAGGGGGCCUGGAAGUUUGGACAGGGCAGAGCUCAACACAGCGUGGCAAAGUGGCUGUGGCUAGACUGCCUCUCUGGAUUCCUCGUCACUCAGCAGGGCAUCUCUGAGAGAUAUGCC [U52A A141U], 1.35.
The value for UACGUAGGUGGUUUUCCCCUGAUAGUGCUAAGGGGGCCUGGAAGUUUGGACAGGGCAGAGCUCAACACAGCGUGGCAAAGUGGCUGUGGCUAGACUGCCUCUCUGGAUUCCUCGUCACUCAGCAGGGCAUCUCUGAGAGACAUGCC [U52A A141C] was 1.48.
